Holding throughout (assay type): cell-based, Human
For assay [1], the system named is H1975 cells. As to the kind of experiment: Clonogenic (colony-formation) assay. Here is the method:
(§1) FIGS. 6A-6F illustrate that TWEAK-induced NSCLC cell survival is dependent on Mcl-1 expression. H1975 (FIG. 6A) and H2073 (FIG. 6B) cells were transfected with luciferase (siCont) or siRNAs targeting Mcl-1. Total lysates were collected 72 hours post-transfection and immunoblotted for Mcl-1 and alpha-tubulin. H1975 (FIGS. 6C and 6E) and H2073 (FIGS. 6D and 6F) cells transfected with control or siRNA constructs targeting Mcl-1 were exposed to 1 μM cisplatin for 24 hours (FIGS. 6C and 6D) or 2Gy ionizing radiation (FIGS. 6E and 6F)±pre-incubation with TWEAK (100 ng/mL). Cells were sparsely seeded into 6-well dishes and allowed to grow for 7 days prior to staining with crystal violet and colony counting. A colony was defined as containing at least 50 cells. Bars represent average of three independent wells±standard error with the non-treated (first bar) set to 1. * represents a p value <0.05 by ANOVA with Bonferroni posttest.
H1975 (FIG. 7A) and H2073 (FIG. 7B) cells were transfected with luciferase (siCont) or siRNA targeting Bcl-xL. Total lysates were collected 72 hours post-transfection and immunoblotted for Bcl-xL and alpha-tubulin. H1975 (FIGS. 7C and 7E) and H2073 (FIGS. 7D and 7F) cells transfected with control or siRNA construct targeting Bcl-xL were exposed to 1 μM cisplatin for 24 hours (FIGS. 7C and 7D) or 2Gy ionizing radiation (FIGS. 7E and 7F)±pre-incubation with TWEAK (100 ng/mL). Cells were sparsely seeded into 6-well dishes and allowed to grow for 7 days prior to staining with crystal violet and colony counting. A colony was defined as containing at least 50 cells. Bars represent average of three independent wells±standard error with the non-treated (first bar) set to 1. * represents a p value <0.05 by ANOVA with Bonferroni posttest.
H1975 (FIGS. 11A and 11B) cells were pre-incubated with TWEAK (100 ng/mL), (FIG. 11A) EU-5148 (10 μM), (FIG. 11B) ABT-737 (10 […]) or both drug and TWEAK prior to exposure to 2Gy ionizing radiation. Cells were sparsely seeded (125 cells) into 6-well dishes and allowed to grow for 7 days prior to staining with crystal violet and colony counting. A colony was defined as containing at least 50 cells. Bars represent average of three independent wells±standard error with the non-treated (first bar) set to 1. * represents a p value <0.05 by ANOVA with Bonferroni posttest.
FIGS. 12A-12C illustrate that pharmacologic inhibition of Mcl-1 abrogates TWEAK-mediated cell survival. […]
Observations of colony forming capacity following cytotoxic insult were performed as previously described (Franken N A, Rodermond H M, Stap J, Haveman J, van Bree C. Clonogenic assay of cells in vitro. Nat Protoc. 2006; 1:2315-9). […] Cells were then trypsinized, quantified, and equally dispersed in triplicate in 6-well cell culture dishes at 250 cells per well. […]

For assay [2], the system named is cleaved-PARP in H1975 cells. As to the kind of experiment: Cleaved-PARP immunoblot (apoptosis). Here is the method: FIGS. 8A and 8B illustrate that depletion of Mcl-1 abrogates TWEAK-induced protection from cell death induced by DNA damage. H1975 cells were transfected with either siRNA targeting luciferase (control) or Mcl-1. Cells were exposed to 5 uM cisplatin (FIG. 8A) or 8Gy radiation (FIG. 8B) for 0, 4 or 24 hours±pre-incubation with TWEAK (100 ng/mL). Total cell lysates were prepared and immunoblotted for cleaved-PARP (cPARP) and GAPDH as a loading control. All blots were run in duplicate.
Mcl-1, Bcl-2, Bcl-xL, phospho-p65 (Serine residue 536), Bak, GAPDH, and cleaved-PARP antibodies were obtained from Cell Signaling Technology Inc. (Beverly, Mass.), and α-tubulin antibody was obtained from Millipore (San Diego, Calif.). Human recombinant TWEAK was purchased from PeproTech (Rock Hill, N.J.), and cisplatin was obtained from TZS Chemical via BIOTANG Inc. (Waltham, Mass.). The Mcl-1-specific inhibitor EU-5148 was kindly provided by Eutropics Pharmaceuticals (Cambridge, Mass.). ABT-737 was obtained from Selleck Chemicals (Houston, Tex.). […]
For orientation: A western blot detects proteins with antibodies after separation by electrophoresis.

Assay [3] relates to H2073 cells. As to the kind of experiment: Clonogenic (colony-formation) assay. Here is the method: as §1, with “Bars represent average of three independent wells±standard error with the non-treated (first bar) set to 1. * represents a p value <0.05 by ANOVA with Bonferroni posttest.” left out
Observations of colony forming capacity following cytotoxic insult were performed as previously described (Franken N A, Rodermond H M, Stap J, Haveman J, van Bree C. Clonogenic assay of cells in vitro. Nat Protoc. 2006; 1:2315-9). […] Cells were then trypsinized, quantified, and equally dispersed in triplicate in 6-well cell culture dishes at 250 cells per well. […] Apparent colonies were counted. […] Statistical significance, defined as a p value <0.05, was determined by ANOVA analysis with Bonferroni posttests in Graphpad Prism.

Assay [4] has as its system Mcl-1 and Bcl-xL mRNA in H2073 cells. As to the kind of experiment: qPCR of Mcl-1 and Bcl-xL mRNA after TWEAK. The settings on record: H2073, TWEAK 100 ng/mL, maximal at about 6 hours. On the procedure: (§2) FIGS. 5A and 5B illustrate that TWEAK exposure enhances Mcl-1 and Bcl-xL mRNA expression. Total RNA was collected from (FIG. 5A) H1975 and (FIG. 5B) H2073 cells treated with 100 ng/mL TWEAK for the indicated time points. mRNA expression of Mcl-1 and Bcl-xL were determined by qPCR with histone H3.3 mRNA levels used as endogenous control. Bars represent the average±standard error of triplicate qPCR reactions. * represents a p value <0.05 compared to no treatment (of the respective gene) by Student's t test. All assays were run in duplicate.
(§3) Human lung adenocarcinoma cell lines H1975 and H2073 (ATCC, Manassas, Va.) were maintained in RPMI 1640 media (Invitrogen, Carlsbad, Calif.) plus 10% heat-inactivated fetal bovine serum (FBS) in a 37° C., 5% CO2 atmosphere. […]
(§4) mRNA expression was determined by qPCR as previously described (Fortin Ensign S P, Mathews I T, Eschbacher J M, Loftus J C, Symons M H, Tran N L. The Src homology 3 domain-containing guanine nucleotide exchange factor is overexpressed in high-grade gliomas and promotes tumor necrosis factor-like weak inducer of apoptosis-fibroblast growth factor-inducible 14-induced cell migration and invasion via tumor necrosis factor receptor-associated factor 2. J Biol Chem. 2013; 288:21887-97). […]
(In general: In qPCR the cycle at which signal appears reflects the starting amount.)

Assay [5] relates to Mcl-1 and Bcl-xL mRNA in H1975 cells. As to the kind of experiment: qPCR of Mcl-1 and Bcl-xL mRNA after TWEAK. The settings on record: H1975, TWEAK 100 ng/mL, maximal at about 6 hours. On the procedure:
as §2, §3, §4

For assay [6], the system named is phosphorylated p65, Mcl-1, Bcl-xL in H2073 cells. As to the kind of experiment: Immunoblot after TWEAK treatment. The settings on record: H2073, TWEAK 100 ng/mL. Here is the method: (§5) FIGS. 4A-4C illustrate that TWEAK induces Mcl-1 in NSCLC cell lines in an NF-κB-dependent manner. Total cell lysates were prepared from serum-reduced (FIG. 4A) H1975 and (FIG. 4B) H2073 cell lines treated with TWEAK for the indicated times and immunoblotted with the indicated antibodies: Mcl-1, Bcl-xL, and phosphorylated-p65 (Ser536). Tubulin was used as a loading control. (FIG. 4C) Serum-reduced H2073 cells transfected±IkBα mutant were treated with TWEAK for 24 hours. Cells were harvested, total cell lysates were prepared and immunoblotted with the indicated antibodies to both Mcl-1 and phospho-p65. All blots were run in duplicate and tubulin was used as a loading control.
(§6) Human lung adenocarcinoma cell lines H1975 and H2073 (ATCC, Manassas, Va.) were maintained in RPMI 1640 media (Invitrogen, Carlsbad, Calif.) plus 10% heat-inactivated fetal bovine serum (FBS) in a 37° C., 5% CO2 atmosphere. SU-DHL10 (Deng J, Carlson N, Takeyama K, Dal Cin P, Shipp M, Letai A. BH3 profiling identifies three distinct classes of apoptotic blocks to predict response to ABT-737 and conventional chemotherapeutic agents. Cancer Cell. 2007; 12:171-85), Bcl-2 1863 and Mcl-1 1780 cell lines (Ryan J A, Brunelle J K, Letai A. Heightened mitochondrial priming is the basis for apoptotic hypersensitivity of CD4+CD8+ thymocytes. Proc Natl Acad Sci USA. 2010; 107:12895-900) were maintained in RPMI 1640 plus 10% FBS with 50 μM β-mercaptoethanol added to 1863 and 1780 cells. In all assays treated with TWEAK, cells were cultured in reduced serum (0.5% FBS) for 16 hours prior to stimulation with TWEAK at 100 ng/mL in RPMI+0.1% bovine serum albumin (BSA) for the indicated times.
(§7) Mcl-1, Bcl-2, Bcl-xL, phospho-p65 (Serine residue 536), Bak, GAPDH, and cleaved-PARP antibodies were obtained from Cell Signaling Technology Inc. (Beverly, Mass.), and α-tubulin antibody was obtained from Millipore (San Diego, Calif.). Human recombinant TWEAK was purchased from PeproTech (Rock Hill, N.J.), and cisplatin was obtained from TZS Chemical via BIOTANG Inc. (Waltham, Mass.). The Mcl-1-specific inhibitor EU-5148 was kindly provided by Eutropics Pharmaceuticals (Cambridge, Mass.). ABT-737 was obtained from Selleck Chemicals (Houston, Tex.). Immunoblot analysis was performed as previously described (Whitsett T G, Cheng E, Inge L, Asrani K, Jameson N M, Hostetter G, et al. Elevated expression of Fn14 in non-small cell lung cancer correlates with activated EGFR and promotes tumor cell migration and invasion. Am J Pathol. 2012; 181:111-20; Tran N L, McDonough W S, Savitch B A, Sawyer T F, Winkles J A, Berens M E. The tumor necrosis factor-like weak inducer of apoptosis (TWEAK)-fibroblast growth factor-inducible 14 (Fn14) signaling system regulates glioma cell survival via NFkB pathway activation and BCL-XL/BCL-W expression. J Biol Chem. 2005; 280:3483-92).

The subject of assay [7] is phosphorylated p65, Mcl-1, Bcl-xL, Bcl-2 in H1975 cells. As to the kind of experiment: Immunoblot after TWEAK treatment. On the procedure:
as §5, §6, §7

Consider `CN(C)CC[C@H](CSc1ccccc1)Nc1ccc(S(=O)(=O)NC(=O)c2ccc(N3CCN(Cc4ccccc4-c4ccc(Cl)cc4)CC3)cc2)cc1[N+](=O)[O-]` [ABT-737], for which the “effect on TWEAK-induced cell survival” value in assay [1] (H1975, drug 10 μM plus TWEAK 100 ng/mL, 2Gy ionizing radiation) is “lesser effect on TWEAK-induced cell survival”. The “sensitivity to radiation (cell survival, colony count)” value in assay [1] (H1975, drug 10 μM pre-incubation, 2Gy ionizing radiation) is “did sensitize H1975 cells to radiation”.
Regarding `N.N.[Cl][Pt][Cl]` [cisplatin, reference compound], the “cell survival (colony formation)” value in assay [1] (H1975, 1 μM cisplatin) was “significantly reduced NSCLC cell survival”; in assay [3] (H2073, 1 μM cisplatin), “significantly reduced NSCLC cell survival”. For the same molecule, the “protein expression of cleaved-PARP” value in assay [2] (H1975, 5 uM cisplatin, 0, 4 or 24 hours) is “induces protein expression of cleaved-PARP over time”.

B1: TWEAK: Human recombinant tumor necrosis factor-like weak inducer of apoptosis, purchased from PeproTech (protein, UniProt O43508 94-249, looked up)
Tumor necrosis factor ligand …: SAPKGRKTRARRAIAAHYEVHPRPGQDGAQAGVDGTVSGWEEARINSSSPLRYNRQIGEFIVTRAGLYYLYCQVHFDEGKAVYLKLDLLVDGVLALRCLEEFSATAASSLGPQLRLCQVSGLLALRPGSSLRIRTLPWAHLKAAPFLTYFGLFQVH
With B1, the “cell survival after cisplatin or radiation with TWEAK pre-treatment” value is recorded as “significantly attenuated the effects of either cisplatin or radiation” in assay [1] (H1975, TWEAK 100 ng/mL, 1 μM cisplatin or 2Gy) and “significantly attenuated the effects of either cisplatin or radiation” in assay [3] (H2073, TWEAK 100 ng/mL, 1 μM cisplatin or 2Gy). Moreover, the “maximal increase of Mcl-1 and Bcl-xL mRNA levels” value is given as 50 fold in assay [4] and 10 fold in assay [5]. In addition, in assay [2] (H1975, TWEAK 100 ng/mL, 5 uM cisplatin or 8Gy radiation, 4 or 24 hours), the “induction of cleaved-PARP with TWEAK pretreatment” value is reported as “completely abrogates the induction of cleaved-PARP”. Besides, the “phosphorylated p65 (P-p65)” value is on record as “clear induction” in assay [6] and “clear induction” in assay [7] (H1975, TWEAK 100 ng/mL). Further, the “protein expression of Mcl-1 and Bcl-xL over time” value in assay [6] is recorded as “incremental increases”; in assay [7] (H1975, TWEAK 100 ng/mL), “incremental increases”. For the same molecule, the “protein expression of Bcl-2” value in assay [7] (H1975, TWEAK exposure) was “up-regulated”.
